Data from paper PMC10235760 (Frontiers in Immunology, 2023).

Target: T1, SARS-CoV-2 receptor binding domain, omicron subvariant BA5 (RBDBA5) (SARS-CoV-2, Omicron BA.5, strain)
T1 construct: also called Omicron BA5 RBD
Assay: SPR; Biacore T200, […]; 25°C, HBS-EP+ ([…], pH 7.4); 1:1 binding model; triplicate
Conditions: both partners purified

B1: antibody 10-40 with triple mutations (S32H heavy, R100bI heavy, Q53F light) (antibody, V domains shown)
VH: QLQLQESGPGLVKPSETLSLTCTVSGGSISSHNFYWGWIRQPPGKGLEWIASITYSGRTFYNPSLKSRVAISVDTSKNQFSLKLSSVTAADTAVYYCARTFPSYYDISGYHYLNYGMDVWGQGTTVTVSS
VL: NFMLTQPHSMSESPGKTVTISCTRSSGSIASNYVQWYQQRPGSSPTTVIYEDNFRPSGVPDRFSGSIDSSSNSASLTISGLKTEDEADYYCQSYDSSSWVFGGGTKLTVL
notes: also called combination of S32HH, R100bIH, and Q53FL
- fold improvement of binding affinity over antibody 10-40: > 5000 fold
